Our source for the Kd values is PMC8568920 (2021).

The target of this assay is biotinylated lysocin E derivative, natural type (biotin (position not given); fatty acid chain moiety). As to the kind of experiment: BLI. (In general: BLI is a label-free optical method that tracks binding on a fibre tip over time.)

B1: recombinant human apolipoprotein A-I ∆NM variant (domain or fragment)
chain: PVTQEFWDNLEKETEGLRQEMSKDLEEVKAKVQPYLDDFQKKWQEEMELYRQKVEPLRAELQEGARQKLHELQEKLSPLGTHLAPYSDELRQRLAARLEALKENGGARLAEYHAKATEHLSTLSEKAKPALEDLRQGLLPVLESFKVSFLSALEEYTKKLNTQ
For orientation: Kd means the constant that tells how readily two partners part at equilibrium. A higher Kd goes with weaker binding. B1 registered a Kd of 5.6 µM.
